The results in this text go back to patent publication US20040005671A1 (ZENYTH OPERATIONS, published 2004).

B1: VEGF-R1D2 (Ig domain 2 of human VEGF-R1, residues 129-229, from E. coli) (receptor, UniProt P17948 129-229, looked up)
chain: SDTGRPFVEMYSEIPEIIHMTEGRELVIPCRVTSPNITVTLKKFPLDTLIPDGKRIIWDSRKGFIISNATYKEIGLLTCEATVNGHLYKTNYLTHRQTNTI
notes: range 129-229; Cloned into pQE30; also called Flt-1 domain 2

Experiment [1] has as its target VEGF-R1-(hflt1-4)gp130 fusion: chimeric receptor of human VEGF-R1 Ig domains 1 to 4 with the transmembrane and cytoplasmic domains of gp130, on clone 2.1.19.25 cells (human). In words: cell-based or functional assay.
For experiment [2] the target is unchanged.
In experiment [3] the target is VEGF-R1D2 (Ig domain 2 of human VEGF-R1, residues 129-229, from E. coli) (human) (UniProt P17948). In words: SPR (Biacore), VEGF-B immobilised on a CM5 chip, VEGF-R1D2 in solution, Scatchard analysis at steady state. (Surface plasmon resonance follows binding to a sensor surface in real time, without labels.)
For experiment [4], the target named is T1, VEGF-B186 (recombinant mature human, N-terminal His6-tagged, refolded homodimer from E. coli) (human, UniProt P49765 22-207, Refolded homodimer; one protomer given.).
T1 construct: not shown: N-terminal His6 tag coded by the pET15b vector
T1 sequence: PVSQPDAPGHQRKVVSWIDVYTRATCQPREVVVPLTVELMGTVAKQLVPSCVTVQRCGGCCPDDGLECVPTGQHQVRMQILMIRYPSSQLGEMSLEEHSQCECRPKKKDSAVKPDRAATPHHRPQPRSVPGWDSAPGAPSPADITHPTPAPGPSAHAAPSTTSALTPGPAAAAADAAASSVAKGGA
The experiment is described as above. The procedure:
(§1) For initial Biosensor analysis of the binding of the purified and refolded VEGF-B3 isoforms, surface plasmon resonance (Biosensor 2000; Biacore, Sweden) and recombinant VEGF-R1D2 are used. […] The three forms of VEGF-B were immobilized on separate channels of a CM5 sensor chip, while murine LIF was immobilized to a fourth channel to serve as a negative control. Interaction with VEGF-R1D2 was monitored on all channels simultaneously.
(§2) Purified VEGF-R1D2 is diluted to varying concentrations in 0.1% w/v BSA, 20 mM HEPES, 0.15 M NaCl, 0.005% w/v Tween 20, 3.4 mM EDTA, pH 7.4. […] Scatchard analysis is used to determine binding kinetics at steady state equilibrium.

Experiment [5] concerns the target B1. The description is as above. The procedure: as §1, §2

The Kd is the concentration at which binding is half-saturated.

VEGF-R1-(hflt1-4)gp130 fusion: chimeric receptor of human VEGF-R1 Ig domains 1 to 4 with the transmembrane and cytoplasmic domains of gp130, on clone 2.1.19.25 cells (human), sequence (chain, as listed by the source mutant limits assumed, form in doubt): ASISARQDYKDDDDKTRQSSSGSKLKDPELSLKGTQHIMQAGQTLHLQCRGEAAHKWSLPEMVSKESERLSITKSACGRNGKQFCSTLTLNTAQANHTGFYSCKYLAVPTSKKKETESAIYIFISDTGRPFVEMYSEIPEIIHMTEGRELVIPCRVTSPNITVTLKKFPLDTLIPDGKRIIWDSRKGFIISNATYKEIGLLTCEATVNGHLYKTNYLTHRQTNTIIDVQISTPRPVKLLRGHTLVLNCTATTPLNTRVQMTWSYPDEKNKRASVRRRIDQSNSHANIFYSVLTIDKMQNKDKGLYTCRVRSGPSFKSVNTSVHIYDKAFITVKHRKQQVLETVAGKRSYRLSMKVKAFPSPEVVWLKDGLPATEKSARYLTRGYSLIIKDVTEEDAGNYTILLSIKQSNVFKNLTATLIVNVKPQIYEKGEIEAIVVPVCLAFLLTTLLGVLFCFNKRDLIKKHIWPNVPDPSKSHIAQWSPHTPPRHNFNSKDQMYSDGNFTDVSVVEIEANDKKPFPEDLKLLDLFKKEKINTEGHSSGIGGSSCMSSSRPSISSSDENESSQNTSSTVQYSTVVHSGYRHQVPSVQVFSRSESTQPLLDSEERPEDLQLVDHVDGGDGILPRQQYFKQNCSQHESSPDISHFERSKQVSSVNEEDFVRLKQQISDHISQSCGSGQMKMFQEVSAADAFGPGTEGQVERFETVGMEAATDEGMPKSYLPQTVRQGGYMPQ

Take VEGF-A (ligand): the luciferase, signal to background ratio, clone 2.1.19.25 cells in experiment [1] lay in the range of 2.5 to 3.

As to “VEGF-B167 (recombinant, N-terminal His6-tagged, refolded homodimer from E. coli) (from UniProt P49765 22-207) (ligand)”, in experiment [2], the EC50 (read off the curve) (luciferase reporter, clone 2.1.19.25 cells; VEGF-B167 titrated in the presence of the control mAb at 50 µg/ml) was 0.3 µg/mL. Besides, in experiment [1], the ED50, luciferase, 2.1.19.25 cell-based assay was in the range of 0.15 to 0.3 µg/mL. For the same molecule, the Kd in experiment [3] is 1.5 nM.

Turning to B1, the Kd in experiment [4] came to 2 nM.

B2: VEGF-B10-108 (truncated mature human VEGF-B, N-terminal His6-tagged, refolded homodimer from E. coli) (ligand, UniProt P49765 31-129, looked up)
chain: HQRKVVSWIDVYTRATCQPREVVVPLTVELMGTVAKQLVPSCVTVQRCGGCCPDDGLECVPTGQHQVRMQILMIRYPSSQLGEMSLEEHSQCECRPKKK
notes: not shown: additional 16 amino acids at the N-terminus which incorporate a His6 tag and a Genenase I cleavage site (pQE30)
B2 gave a Kd in experiment [5] of 0.8 nM.
